Test results reported in patent US20190160028.

B1: His-tagged maltose-binding protein (MBP) fused to DENV2 NS3 protein (His-MBP-NS3) (protein)
chain: AGVLWDVPSPPPMGKAELEDGAYRIKQKGILGYSQIGAGVYKEGTFHTMWHVTRGAVLMHKGKRIEPSWADVKKDLISYGGGWKLEGEWKEGEEVQVLALEPGKNPRAVQTKPGLFKTNAGTIGAVSLDFSPGTSGSPIIDKKGKVVGLYGNGVVTRSGAYVSAIAQTEKSIEDNPEIE
B2: refolded His-NS3 (protein)
chain: B1 chain

Target: His-tagged DENV2 NS2B protein (His-NS2B) (aa 48-95)

Protein	transactivation (protease activity, Abz substrate at 200 µM; NS3 150 nM, NS2B 1 µM)
B1	Both soluble MBP-NS3 fusion protein and refolded NS3 can be trans-activated by soluble His-NS2B, and have similar activities
B2	Both soluble MBP-NS3 fusion protein and refolded NS3 can be trans-activated by soluble His-NS2B, and have similar activities
